For one experiment, the target named is T1, His6-Trs31 (recombinant) (yeast, UniProt Q03337 1-283).
T1 sequence (looked up): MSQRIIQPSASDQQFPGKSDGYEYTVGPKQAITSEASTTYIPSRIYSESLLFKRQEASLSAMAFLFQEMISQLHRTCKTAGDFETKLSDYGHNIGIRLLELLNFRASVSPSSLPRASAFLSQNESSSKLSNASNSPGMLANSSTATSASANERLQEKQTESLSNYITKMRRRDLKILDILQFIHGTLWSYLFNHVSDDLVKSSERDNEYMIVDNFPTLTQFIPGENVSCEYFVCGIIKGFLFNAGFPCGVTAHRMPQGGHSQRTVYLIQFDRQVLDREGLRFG
Put plainly: co-purification of co-expressed subunits.

The next experiment deals with T2, Trs130-TAP (recombinant) (yeast, UniProt Q03660 1-1102).
T2 sequence (looked up): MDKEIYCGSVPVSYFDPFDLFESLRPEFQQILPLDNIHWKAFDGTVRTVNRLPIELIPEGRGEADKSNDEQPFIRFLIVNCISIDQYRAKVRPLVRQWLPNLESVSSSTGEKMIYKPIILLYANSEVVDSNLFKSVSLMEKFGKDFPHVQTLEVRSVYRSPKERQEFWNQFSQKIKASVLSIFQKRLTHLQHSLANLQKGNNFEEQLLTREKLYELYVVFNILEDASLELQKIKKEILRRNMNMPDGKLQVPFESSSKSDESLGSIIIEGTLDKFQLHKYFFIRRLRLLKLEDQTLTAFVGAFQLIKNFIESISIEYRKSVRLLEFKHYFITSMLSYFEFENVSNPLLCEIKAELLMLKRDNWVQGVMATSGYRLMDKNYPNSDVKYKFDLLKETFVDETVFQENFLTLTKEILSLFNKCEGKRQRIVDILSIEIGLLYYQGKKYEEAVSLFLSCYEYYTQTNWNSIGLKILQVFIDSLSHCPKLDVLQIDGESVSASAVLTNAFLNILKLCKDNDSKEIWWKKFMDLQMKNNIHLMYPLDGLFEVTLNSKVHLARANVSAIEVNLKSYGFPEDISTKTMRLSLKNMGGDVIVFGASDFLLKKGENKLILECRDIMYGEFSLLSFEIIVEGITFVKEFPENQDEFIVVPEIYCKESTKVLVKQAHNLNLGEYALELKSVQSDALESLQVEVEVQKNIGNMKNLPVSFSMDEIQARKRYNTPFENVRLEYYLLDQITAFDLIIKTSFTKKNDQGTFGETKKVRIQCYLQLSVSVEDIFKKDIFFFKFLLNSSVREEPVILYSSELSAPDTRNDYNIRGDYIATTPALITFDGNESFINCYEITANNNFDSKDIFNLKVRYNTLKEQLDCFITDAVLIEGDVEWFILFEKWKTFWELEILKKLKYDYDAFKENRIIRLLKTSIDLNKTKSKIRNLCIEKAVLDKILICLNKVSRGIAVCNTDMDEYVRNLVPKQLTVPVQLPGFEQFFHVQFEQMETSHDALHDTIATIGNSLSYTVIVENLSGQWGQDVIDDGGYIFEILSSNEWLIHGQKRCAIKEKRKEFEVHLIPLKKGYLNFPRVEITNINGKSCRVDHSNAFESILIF
Put plainly: co-purification of co-expressed subunits.

The source of these data is article PMC5119942 (The Journal of Cell Biology, 2016).

B1: Bet3 (recombinant) (natural protein, yeast, UniProt P36149 1-193, looked up)
chain: MVSTTQSRSLKAMGEEIWKNKTEKINTELFTLTYGSIVAQLCQDYERDFNKVNDHLYSMGYNIGCRLIEDFLARTALPRCENLVKTSEVLSKCAFKIFLNITPNITNWSHNKDTFSLILDENPLADFVELPMDAMKSLWYSNILCGVLKGSLEMVQLDCDVWFVSDILRGDSQTEIKVKLNRILKDEIPIGED
As usually defined, the stoichiometry N is a count of units in the complex or per binding partner. As to B1, the “stoichiometry N” value with His6-Trs31 (recombinant) and with Trs130-TAP (recombinant) was 2 throughout.
